Data reported in paper PMC5357137.

Key:
[1] = tested on: MuA transposase in cleaved-donor complex (CDC, WT transpososome) (bacteriophage Mu); test: fluorescence anisotropy; conditions: Mg2+, CDC with 3'ddA Mu ends, Anisotropy: purified CDCs diluted in reaction buffer with MgCl2 (+/- DMSO; concentrations, salt and pH not in material), 6 nM Atto565 target DNA, 1 h, room …
[2] = tested on: MuA delta domain III (catalytic subunits of delta domain III CDC);SinMu chimera (non-catalytic subunits) (bacteriophage Mu;bacteriophage Mu; Sin recombinase (organism not stated)); test: fluorescence anisotropy; conditions: Mg2+, DMSO; CDC with 3'ddA Mu ends; single G:G mismatch at center; Anisotropy: purified CDCs diluted in reaction buffer with MgCl2 (+/- DMSO; concentrations, salt and pH not in material), 6 nM Atto565 target DNA, 1 h, room …

Substance	Kd ([1]; DMSO, Hill coefficient 2.6, single G:G mismatch at center) [nM]	Kd ([1]; no DMSO, Hill coefficient 3.3, single G:G mismatch at center) [nM]	Kd [2] [nM]	Kd ([1]; DMSO) [nM]
target DNA with central G:G mismatch, 35 bp	15	15	38	
target DNA, fully base paired, 35 bp				29
